Measured values reported in patent US7648964B2, “Use of lacritin in promoting ocular cell survival” (University of Virginia Patent Foundation, priority 2004, dated 2010).

B1: lacritin: recombinant human lacritin from E. coli; mature 119 residue fragment (SEQ ID NO:10) of native lacritin SEQ ID NO:4 (protein, listed as Homo sapiens)
chain: EDASSDSTGADPAQEAGTSKPNEEISGPAEPASPPETTTTAQETSAAAVQGTAKVTSSRQELNPLKSIVEKSILLTEQALAKAGKGMHGGVPGGKQFIENGSEFAQKLLKKFSLLKPWA
B2: N-24: deletion mutant comprising a deletion of the 24 amino terminal amino acids of lacritin (protein)
chain: DSTGADPAQEAGTSKPNEEISGPAEPASPPETTTTAQETSAAAVQGTAKVTSSRQELNPLKSIVEKSILLTEQALAKAGKGMHGGVPGGKQFIENGSEFAQKLLKKFSLLKPWA
modifications: homo sapiens
notes: deletion mutant comprising a deletion of the 24 amino terminal amino acids of lacritin

Experiments:
[1] = system: PKCα; assay: PKCα translocation in HSG cells (immunofluorescence, fractionation); format: cell-based, human; details: for PKCα translocation: 15 min after treatment
Text: In order to dissect the molecular pathways leading to the cell survival by lacritin, protein kinases and transcriptional factors were studied by Western blotting and immunofluorescence microscopy.
Images were acquired at 2-3 s intervals using LaserSharp2000 software (Bio-Rad) and store on disc for later analysis.

[2] = system: NFATC1; assay: NFATC1 translocation in HSG cells (immunofluorescence); format: cell-based, human; details: for NFATC1 translocation: HSG and corneal epithelial cells
Text: In order to dissect the molecular pathways leading to the cell survival by lacritin, protein kinases and transcriptional factors were studied by Western blotting and immunofluorescence microscopy. […] On the other hand, there were increased activities of transcriptional factors such as nuclear factor of activated T-cells (NFAT) and NF-kappaB. In FIG. 4, translocation of PKC alpha and NFAT was detected by immunofluorescence coupled with confocal microscopic imaging. In resting HSG cells (left three images), PKC alpha distributes mainly in cytosol and membrane. Similarly, NFATc1 was also found to localize largely in cytosol. Cellular co-location of PKC alpha and NFATc1 is apparent upon merging the two immunofluorescent images, as the merged cy3 and FITC labels produce distinctive yellow color.
Images were acquired at 2-3 s intervals using LaserSharp2000 software (Bio-Rad) and store on disc for later analysis. For translocation assays, HSG cells […] phorbol 12-myristate 13-acetate, […], then washed with phosphate-buffered saline, formaldehyde-fixed, blocked with phosphate-buffered saline containing 1% bovine serum albumin and 10% goat serum, incubated with anti-PKCα (C-20) or anti-NFATC1 (mab 7A6) (both from Santa Cruz Biotechnology Inc.; Santa Cruz, Calif.) followed by secondary Cy3-, FITC- or Alexa488-labeled antibodies and confocal microscopic visualization (Bio-Rad Radiance2100).

[3] = system: PKCα; assay: Phospho-PKCα blot of HSG cell lysates; format: cell-based, human; details: for concentration of optimal dephosphorylation: increasing molar levels
Method: For phosphotyrosine blotting and mitogenesis assays, cells in serum-containing media were seeded overnight in 24-well plates at a density of 0.5×10^5 cells/mm^2 corresponding to 20-30% confluency after cell attachment, incubated in serum-free media without supplements for 24 h (phosphotyrosine) or washed with serum-free media without supplements three times (mitogenesis) and incubated with lacritin (1-1000 nM), or positive controls EGF (1.6 nM) and 10% fetal bovine serum, or negative controls bovine serum albumin or no additive in serum-free media without supplements for the indicated times (phosphotyrosine) or 30 h (mitogenesis). For phosphotyrosine assays, cells were extracted in 1% NP40 containing sodium vanadate (2 mg/ml), DTT (5 mg/ml), protease inhibitors, 50 mM HEPES, 100 mM NaCl, and 2 mM EDTA; then separated by 10% SDS PAGE, transferred and blotted. The following antibodies (Cell Signaling Technology, Beverly Mass.) were tested: antiphosphotyrosine antibody (P-Tyr-100), anti-phospho-PKC αβII, anti-PKCα, anti-phospho-PKCδ, anti-phospho-PKC (pan), anti-p44/42 MAPK, anti-phospho-Raf, anti-phospho-SAPK/JNK, anti-phospho-p38 Map kinase, anti-phospho-Raf, anti-phospho-Akt, anti-phospho-CaMKII, anti-phospho-MARCKS, or anti-tubulin (loading control). After washing, bound antibodies were detected with peroxidase-labeled secondary antibody and ECL. With the exception of at least nine proteins in the P-Tyr-100 blot (FIG. 1), none of the effectors tested above appeared to be phospho-activated during lacritin signaling (not shown). For mitogenesis (Hussaini et al., '00), [^3H]-thymidine (2 mCi/ml) was added for the next 6 h. Incorporation was stopped with ice-cold phosphate buffered saline and followed by addition of cold and then room temperature trichloracetic acid (10%) for 10 min each, washing of cells with phosphate buffered saline, solubilization with 1 N sodium hydroxide, neutralization with 1 N hydrochloric acid, addition of scintillation fluid and then quantitation in a scintillation counter. To deplete PKCα in HSG cells, a pool of four PKCα-specific siRNAs (100 nM) were transfected via LipofectAMINE 2000 in Opti-MEMI Reduced Serum Medium (Invitrogen, Grand Island N.Y.) without serum and antibiotics according to manufacturer's instructions. Each of the four siRNAs was also individually transfected. In negative controls, cells were transfected with a pool of four lamin-specific siRNAs (Upstate LLC, Charlottesville Va.; Dharmacon Inc, Lafayette Colo.). Seventy-two hours post-transfection, mitogenesis was assessed by co-addition of 10 […] lacritin and [^3H]-thymidine (2 mCi/ml) (Amersham, Piscataway N.J.) for 24 hrs. PKCα depletion was confirmed by Western blotting.
We imaged PKCα in cells 15 min after treatment (FIG. 8). Nonmitogenic construct/fragment C-25 (10 nM) had no effect, leaving PKCa diffusely distributed throughout the cytoplasm. […] The phosphorylation state of PKCα influences its translocation site. Hyperphosphorylated PKCα becomes associated with the plasma membrane whereas hypophosphorylated or dephosphorylated PKCα is known to translocate to the perinuclear Golgi region. To determine if the latter is true and if so over what time course, we treated cells with lacritin, N-24 and C-25, and then blotted cell lysates for phospho-PKC ? (FIG. 8B). 10 nM lacritin promotes PKC ? dephosphorylation within 1 min of addition. This form is sustained for at least 15 min, but by 30 min has returned to baseline phosphorylation. Dephosphorylation triggered by increasing molar levels of lacritin or N-24 mirrored the proliferation response with optimal dephosphorylation at 10 nM. Non-mitogenic C-25 had no effect, whereas positive control 4β-phorbol 12-myristate 13-acetate-promoted hyperphosphorylation.

[4] = system: human corneal epithelial (HCE) cell line; assay: TNF-α-induced cell death in HCE cells (MTT cell viability); format: cell-based; details: for protection from TNF-induced cell death (viability): 18 or 30 hours, FIG. 10
Method: (§1) Lacritin-induced proliferation and calcium signaling was studied in the human corneal epithelial (HCE) cell line. HCE cells were grown at 37° C. in DMEM F/12 supplemented with 10% FBS and 50 μg/ml gentamicin. Each experiment was done in a dose- and time-dependent manner using TNF-α (5-20 ng/ml) and lacritin (1-10 nM). Cell viability was measured spectrophotometrically at an absorbance of 570 nm using the MTT assay. Caspase-8 activity was detected fluorometrically by measuring cleavage of the fluorogenic substrate IETD-pNA at an excitation wavelength of 405 nm. Lacritin-induced cell proliferation was studied by H3-thymidine incorporation and via fluorescence-based detection of PKC, PLC and cAMP. Calcium signaling was detected by confocal microscopy of Fluo-4 loaded cells.

[5] = system: caspase-8; assay: Caspase-8 activity in human corneal epithelial cells treated with TNF-α; format: cell-based
Method: FIG. 12 graphically illustrates the ability of lacritin polypeptides to block TNFα induced caspase-8 activity in human corneal epithelial cells. The ordinate represents relative fluorescence units. White bars indicate 1 hour and diagonally-hatched bars indicate 6 hours.
as §1

[6] = lacritin treatment for 1 hour, immunofluorescence

Molecule | effect on lacritin-dependent PKCα translocation ([1]; pertussis toxin 100 ng/ml, Go 6976, U73122, U73343, cyclosporine 1 μM, nifedipine 10 μM) | effect on lacritin-dependent NFATC1 translocation ([2]; cyclosporine 1 μM, nifedipine 10 μM) | effect on lacritin-dependent PKCα dephosphorylation ([3]; pertussis toxin 100 ng/ml, Go 6976, U73122, U73343 1 μM) | protection from TNF-induced cell death (viability) [4] | effect on TNF-α-induced caspase-8 activity [5] | PKCα translocation [1] | PKC alpha at the cell membrane ([1]; about 5 minutes lacritin treatment, subcellular fractionation, Western blotting) | PKC alpha localization [1, 6] | NFATC1 translocation [2] | NFAT localization [2, 6] | time dephosphorylated form is sustained ([3]; 10 nM lacritin) | time of return to baseline phosphorylation ([3]; 10 nM lacritin) [min] | time to PKCα dephosphorylation ([3]; 10 nM lacritin) [min] | concentration of optimal dephosphorylation [3] [nM] | effect on TNF-α-induced cell death ([4]; lacritin 10 nM pretreatment)
Cn1c2ccccc2c2c3c(c4c5ccccc5n(CCC#N)c4c21)CNC3=O [Go 6976] | inhibited | inhibited | inhibited | no effect on viability loss | fail to block | – | – | – | – | – | – | – | – | – | –
B1 | – | – | – | protect | completely blocked | shifted PKCα primarily to the perinuclear Golgi region | very little PKC alpha was detected at the cell membrane | localize outside of the nuclear envelope | translocates into the nucleus | translocates into nuclear compartment | at least 15 min | ≤ 30 | ≤ 1 | 10 | attenuated
B2 | – | – | – | protect | blocked | shifted PKCα primarily to the perinuclear Golgi region | – | – | translocates into the nucleus | – | – | – | – | 10 | –
